Results published in the supplement of paper PMC9112550, “Optimization of the antimicrobial peptide Bac7 by deep mutational scanning” (BMC Biology, 2022).

Test system: Escherichia coli TOP10
Assay: shrunken log2 fold change of peptide-encoding DNA abundance (4.5 h post-induction vs induction); higher = less antimicrobial activity (less host growth inhibition)
Settings: time post-induction: 4.5 h; library: site-saturation at positions 5, 18, 19, 20
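Also: peptides expressed intracellularly from a pBAD plasmid library in pooled LB shake-flask culture, induced with 0.3% L-arabinose, DNA abundance read by NGS, three biological replicates, DESeq2 with apeglm shrinkage.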

Row | Sequence | shrunken log2 fold change
1 | RRIRRRPPRLPRPRPRPIGRPRP | 0.00106
2 | RRIRMRPPRLPRPRPRPQYIPRP | -0.0206
3 | RRIRHRPPRLPRPRPRPVEYPRP | -0.0122
4 | RRIRTRPPRLPRPRPRPVITPRP | 0.0105
5 | RRIRARPPRLPRPRPRPIVNPRP | -0.178
6 | RRIRCRPPRLPRPRPRPYTFPRP | -0.883
7 | RRIRTRPPRLPRPRPRPLYCPRP | -0.715
8 | RRIRYRPPRLPRPRPRPPMDPRP | -0.582
9 | RRIRDRPPRLPRPRPRPCGKPRP | 0.2
10 | RRIRRRPPRLPRPRPRPNREPRP | 0.232
11 | RRIRTRPPRLPRPRPRPTVAPRP | 0.22
12 | RRIRCRPPRLPRPRPRPSHTPRP | -0.283
13 | RRIRKRPPRLPRPRPRPPWYPRP | 0.131
14 | RRIRRRPPRLPRPRPRPHERPRP | 0.225
15 | RRIRKRPPRLPRPRPRPARMPRP | 0.905
16 | RRIRGRPPRLPRPRPRPSRYPRP | -0.0843
17 | RRIRCRPPRLPRPRPRPMPKPRP | 0.0972
18 | RRIRIRPPRLPRPRPRPLKVPRP | -0.29
19 | RRIRWRPPRLPRPRPRPTTCPRP | -0.00726
20 | RRIRHRPPRLPRPRPRPTDPPRP | 0.138
21 | RRIRGRPPRLPRPRPRPFQPPRP | 0.0927
22 | RRIRWRPPRLPRPRPRPNTIPRP | -0.492
23 | RRIRSRPPRLPRPRPRPWDVPRP | 0.166
24 | RRIRNRPPRLPRPRPRPVFQPRP | -0.623
25 | RRIRIRPPRLPRPRPRPFQRPRP | -0.0107

Row | Sequence | shrunken log2 fold change
26 | RRIRFRPPRLPRPRPRPMTQPRP | -0.421
27 | RRIRKRPPRLPRPRPRPIWSPRP | -0.0718
28 | RRIRLRPPRLPRPRPRPLDWPRP | 0.124
29 | RRIRQRPPRLPRPRPRPHGCPRP | 0.0414
30 | RRIRHRPPRLPRPRPRPWWKPRP | -0.0848
31 | RRIRERPPRLPRPRPRPVYCPRP | -0.477
32 | RRIRGRPPRLPRPRPRPFPPPRP | 0.378
33 | RRIRCRPPRLPRPRPRPVCEPRP | 0.0301
34 | RRIRTRPPRLPRPRPRPYLYPRP | -0.702
35 | RRIRYRPPRLPRPRPRPQEPPRP | -0.273
36 | RRIRGRPPRLPRPRPRPVDCPRP | 0.496
37 | RRIRVRPPRLPRPRPRPVGFPRP | 0.158
38 | RRIRMRPPRLPRPRPRPDKQPRP | 0.0746
39 | RRIRSRPPRLPRPRPRPDGHPRP | -0.0734
40 | RRIRWRPPRLPRPRPRPYQPPRP | -0.0963
41 | RRIRQRPPRLPRPRPRPQGGPRP | 0.00902
42 | RRIRRRPPRLPRPRPRPQDFPRP | -0.078
43 | RRIRIRPPRLPRPRPRPGHGPRP | -0.062
44 | RRIRERPPRLPRPRPRPVFHPRP | -0.238
45 | RRIRLRPPRLPRPRPRPKEWPRP | 0.157
46 | RRIRRRPPRLPRPRPRPNPYPRP | -0.0616
47 | RRIRCRPPRLPRPRPRPWAQPRP | -0.211
48 | RRIRRRPPRLPRPRPRPSMHPRP | 0.324
49 | RRIRFRPPRLPRPRPRPHVSPRP | -0.135
50 | RRIRYRPPRLPRPRPRPTKHPRP | -0.896

Row | Sequence | shrunken log2 fold change
51 | RRIRCRPPRLPRPRPRPFWTPRP | -0.317
52 | RRIRIRPPRLPRPRPRPACKPRP | -0.659
53 | RRIRIRPPRLPRPRPRPNFVPRP | 0.0196
54 | RRIRARPPRLPRPRPRPYNWPRP | -0.481
55 | RRIRCRPPRLPRPRPRPQLFPRP | -0.242
56 | RRIRERPPRLPRPRPRPLHDPRP | 0.0501
57 | RRIRERPPRLPRPRPRPGYCPRP | -0.432
58 | RRIRPRPPRLPRPRPRPVAIPRP | -0.0776
59 | RRIRYRPPRLPRPRPRPFKGPRP | 0.00253
60 | RRIRRRPPRLPRPRPRPYFPPRP | 0.31
61 | RRIRIRPPRLPRPRPRPGTEPRP | -0.0203
62 | RRIRKRPPRLPRPRPRPDQCPRP | 0.0219
63 | RRIRPRPPRLPRPRPRPCQIPRP | -0.0156
64 | RRIRNRPPRLPRPRPRPRGDPRP | 0.131
65 | RRIRWRPPRLPRPRPRPRNEPRP | 1.32
66 | RRIRLRPPRLPRPRPRPHKCPRP | -0.0456
67 | RRIRFRPPRLPRPRPRPWQFPRP | -0.333
68 | RRIRMRPPRLPRPRPRPCPPPRP | 0.106
69 | RRIRARPPRLPRPRPRPNPSPRP | 0.262
70 | RRIRFRPPRLPRPRPRPGAYPRP | 0.116
71 | RRIRVRPPRLPRPRPRPVCHPRP | -0.29
72 | RRIRNRPPRLPRPRPRPIDHPRP | -0.169
73 | RRIRDRPPRLPRPRPRPYDPPRP | 0.0101
74 | RRIRTRPPRLPRPRPRPCLQPRP | -0.0598
75 | RRIRLRPPRLPRPRPRPAPTPRP | 0.28

Row | Sequence | shrunken log2 fold change
76 | RRIRKRPPRLPRPRPRPTKGPRP | 0.0795
77 | RRIRTRPPRLPRPRPRPAKIPRP | 0.0299
78 | RRIRRRPPRLPRPRPRPGLSPRP | -0.0549
79 | RRIRARPPRLPRPRPRPGINPRP | -0.242
80 | RRIRKRPPRLPRPRPRPCMKPRP | -0.0153
81 | RRIRKRPPRLPRPRPRPYQWPRP | -0.143
82 | RRIRMRPPRLPRPRPRPAESPRP | 0.419
83 | RRIRFRPPRLPRPRPRPMGRPRP | 0.103
84 | RRIRNRPPRLPRPRPRPDNQPRP | -0.323
85 | RRIRPRPPRLPRPRPRPKKEPRP | 0.0526
86 | RRIRKRPPRLPRPRPRPFFIPRP | -0.061
87 | RRIRIRPPRLPRPRPRPICNPRP | -0.607
88 | RRIRGRPPRLPRPRPRPTHSPRP | 0.587
89 | RRIRYRPPRLPRPRPRPWLWPRP | 0.0662
90 | RRIRSRPPRLPRPRPRPWSQPRP | -0.00693
91 | RRIRERPPRLPRPRPRPKWQPRP | -0.0355
92 | RRIRERPPRLPRPRPRPLASPRP | 0.16
93 | RRIRPRPPRLPRPRPRPISRPRP | 0.121
94 | RRIRIRPPRLPRPRPRPFTNPRP | -0.16
95 | RRIRCRPPRLPRPRPRPEYIPRP | -0.144
96 | RRIRDRPPRLPRPRPRPFRKPRP | -0.0314
97 | RRIRKRPPRLPRPRPRPHDKPRP | 0.176
98 | RRIRTRPPRLPRPRPRPQMPPRP | 0.588
99 | RRIRIRPPRLPRPRPRPERWPRP | 1.8
100 | RRIRSRPPRLPRPRPRPEFPPRP | 0.123

Row | Sequence | shrunken log2 fold change
101 | RRIRNRPPRLPRPRPRPCMHPRP | -0.0807
102 | RRIRGRPPRLPRPRPRPSNVPRP | 0.175
103 | RRIRQRPPRLPRPRPRPWLLPRP | -0.151
104 | RRIRERPPRLPRPRPRPADCPRP | 0.0519
105 | RRIRTRPPRLPRPRPRPAVDPRP | -0.209
106 | RRIRLRPPRLPRPRPRPCVRPRP | 0.0511
107 | RRIRARPPRLPRPRPRPMHMPRP | -0.0568
108 | RRIRCRPPRLPRPRPRPDDGPRP | -0.0952
109 | RRIRNRPPRLPRPRPRPHRQPRP | -0.0962
110 | RRIRVRPPRLPRPRPRPISQPRP | -0.261
111 | RRIRLRPPRLPRPRPRPYTCPRP | -0.223
112 | RRIRSRPPRLPRPRPRPLCKPRP | -0.137
113 | RRIRDRPPRLPRPRPRPIEVPRP | -0.13
114 | RRIRPRPPRLPRPRPRPYRRPRP | -0.198
115 | RRIRYRPPRLPRPRPRPIHPPRP | -0.418
116 | RRIRQRPPRLPRPRPRPCCSPRP | -0.0854
117 | RRIRGRPPRLPRPRPRPPQQPRP | 0.825
118 | RRIRQRPPRLPRPRPRPYIEPRP | -0.45
119 | RRIRQRPPRLPRPRPRPVYPPRP | -0.0407
120 | RRIRYRPPRLPRPRPRPTWAPRP | -0.0132
121 | RRIRVRPPRLPRPRPRPGQGPRP | 0.065
122 | RRIRFRPPRLPRPRPRPIGFPRP | -0.27
123 | RRIRKRPPRLPRPRPRPCNQPRP | 0.0585
124 | RRIRARPPRLPRPRPRPIVQPRP | 0.0602
125 | RRIRSRPPRLPRPRPRPHLEPRP | -0.395

Row | Sequence | shrunken log2 fold change
126 | RRIRQRPPRLPRPRPRPFQKPRP | -0.173
127 | RRIRYRPPRLPRPRPRPCGPPRP | -0.436
128 | RRIRLRPPRLPRPRPRPLNCPRP | -0.156
129 | RRIRVRPPRLPRPRPRPSTIPRP | -0.136
130 | RRIRERPPRLPRPRPRPSSYPRP | -1.12
131 | RRIRQRPPRLPRPRPRPEQTPRP | 0.0148
132 | RRIRDRPPRLPRPRPRPWGGPRP | 0.422
133 | RRIRKRPPRLPRPRPRPMEFPRP | -0.00102
134 | RRIRNRPPRLPRPRPRPMFQPRP | -0.0465
135 | RRIRWRPPRLPRPRPRPYPRPRP | -0.632
136 | RRIRHRPPRLPRPRPRPQVIPRP | -0.0106
137 | RRIRDRPPRLPRPRPRPFCYPRP | 0.0322
138 | RRIRARPPRLPRPRPRPDFTPRP | -0.0266
139 | RRIRYRPPRLPRPRPRPHHNPRP | -1.28
140 | RRIRWRPPRLPRPRPRPHMDPRP | -0.18
141 | RRIRMRPPRLPRPRPRPAIYPRP | 0.0389
142 | RRIRDRPPRLPRPRPRPSWHPRP | -0.0852
143 | RRIRNRPPRLPRPRPRPIFSPRP | 0.0636
144 | RRIRLRPPRLPRPRPRPSWVPRP | -0.141
145 | RRIRYRPPRLPRPRPRPDCHPRP | -0.0362
146 | RRIRTRPPRLPRPRPRPWNFPRP | -0.0511
147 | RRIRQRPPRLPRPRPRPGYYPRP | -0.476
148 | RRIRSRPPRLPRPRPRPNCAPRP | -0.172
149 | RRIRQRPPRLPRPRPRPYEPPRP | 0.00408
150 | RRIRCRPPRLPRPRPRPQALPRP | 0.0319
